± gives the uncertainty stated by the source.

Results on 35 variants are retold here after the Human Domainome abundance scans (Beltran et al. 2025).

B1: Ankyrin-2, residues 3571 to 3650; numbered along this chain, Q01484 (parent)
chain: ERLAYIADHLGFSWTELARELDFTEEQIHQIRIENPNSLQDQSHALLKYWLERDGKHATDTNLVECLTKINRMDIVHLME

Variants of B1 are the subject of the data set. Briefly: abundance fitness (aPCA) (normalised: wild type 0, dead -1); higher = more abundant; growth selection in yeast, the domain comes from the species named. The conditions noted are these: Homo sapiens.
For the variant ERLAYIADHLGFSWTELARELDFTEEQIHQIRINNPNSLQDQSHALLKYWLERDGKHATDTNLVECLTKINRMDIVHLME [E34N], the abundance fitness was -0.048 ± 0.13.

In the case of ERLAYIADHLGFSWTELARELDFTEEQIHQIRIQNPNSLQDQSHALLKYWLERDGKHATDTNLVECLTKINRMDIVHLME [E34Q], the abundance fitness came to 0.085 ± 0.1.

For the variant ERLAYIADHLGFSWTELARELDFTEEQIWQIRIENPNSLQDQSHALLKYWLERDGKHATDTNLVECLTKINRMDIVHLME [H29W], the abundance fitness is -0.137 ± 0.11.

As for ERLAYIADHLGFSWTELARELDFTEEQIHQIRIENPNSLQDQSHALLYYWLERDGKHATDTNLVECLTKINRMDIVHLME [K48Y], the abundance fitness is -0.093 ± 0.12.

With ERLAYIADHLGFSWTELARELDFTEEQIHQIRIENPNSLQDQSHALLDYWLERDGKHATDTNLVECLTKINRMDIVHLME [K48D], the abundance fitness was -0.062 ± 0.17.

In the case of ERLAYIADHLGFSWTELARELDFTEEQIHQIRIENHNSLQDQSHALLKYWLERDGKHATDTNLVECLTKINRMDIVHLME [P36H], the abundance fitness is -0.202 ± 0.2.

As to ERLAYIADHLGFSWTELARELDFTEEQIHQIRIENENSLQDQSHALLKYWLERDGKHATDTNLVECLTKINRMDIVHLME [P36E], the abundance fitness is -0.044 ± 0.23.

Turning to ERLAYIADHLGFSWTELARELDFTEEQIHQIRIENMNSLQDQSHALLKYWLERDGKHATDTNLVECLTKINRMDIVHLME [P36M], the abundance fitness was -0.017 ± 0.12.

On to ERLAYIADHLGFSWTELARELDFTEEQIHQIRIENPNSLQDQSHALLKYWLERDGKHATDTNLVRCLTKINRMDIVHLME [E65R], for which the abundance fitness is -0.011 ± 0.045.

ERLAYIADHLGFSWTELARELDFTEEQIHQIRIENPNSLQDQSHALLKYWLARDGKHATDTNLVECLTKINRMDIVHLME [E52A]: the abundance fitness was determined as 0.037 ± 0.094.

As to ERLAYIADHLGFSWTELARELDFTEEQIHQIRIENPNSLQDQSHALLKYWLERDGKHATDFNLVECLTKINRMDIVHLME [T61F], the abundance fitness is -0.063 ± 0.18.

As for ERLAYIADHLGFSWTELARELDFTEEQIHQIRIENPNSLQDQSHALLKYWLERDGKHATDTNLVECLTKINRGDIVHLME [M73G], the abundance fitness was -0.165 ± 0.31.

As to ERLAYIADHLGFSWTELARELDFTEEQIHQIRIENPNSLQDQSHALLKYWLERDGKHATDTNLVECETKINRMDIVHLME [L67E], the abundance fitness is -0.643 ± 0.22.

For ERLAYIADHLGFSWTELARELDFTEEQIHQIRIENPNSLQDQSHALLKYWLERDGKHATDTNLVECPTKINRMDIVHLME [L67P], the abundance fitness is -0.875 ± 0.16.

Regarding ERLAYIADHLGFSNTELARELDFTEEQIHQIRIENPNSLQDQSHALLKYWLERDGKHATDTNLVECLTKINRMDIVHLME [W14N], the abundance fitness is -0.348 ± 0.23.

Regarding ERLAYIADHLGFSWTNLARELDFTEEQIHQIRIENPNSLQDQSHALLKYWLERDGKHATDTNLVECLTKINRMDIVHLME [E16N], the abundance fitness came to 0.026 ± 0.17.

Turning to ERLAYIADHLGFSWTELARELDFTEEQIHQIYIENPNSLQDQSHALLKYWLERDGKHATDTNLVECLTKINRMDIVHLME [R32Y], the abundance fitness is -0.384 ± 0.2.

As for ERLAYIADHLGFSWTELARELDFTEEQIHQIRIENPNSLQDQSHALLKYWLERDGKHATYTNLVECLTKINRMDIVHLME [D60Y], the abundance fitness is -0.151 ± 0.13.

Turning to ERLAYIADHLGFSWTELARELDFTEEQIHQIRIENPNSLQDQSHALWKYWLERDGKHATDTNLVECLTKINRMDIVHLME [L47W], the abundance fitness is -0.238 ± 0.079.

As for ERLAYIADHLGFSWTELARELDFTEEQIHQIRIENPNSLQDQSHALMKYWLERDGKHATDTNLVECLTKINRMDIVHLME [L47M], the abundance fitness came out at 0.123 ± 0.098.

For the variant ERLAYIADHLGFSWTELARSLDFTEEQIHQIRIENPNSLQDQSHALLKYWLERDGKHATDTNLVECLTKINRMDIVHLME [E20S], the abundance fitness is -0.076 ± 0.097.

For ERLAYIAPHLGFSWTELARELDFTEEQIHQIRIENPNSLQDQSHALLKYWLERDGKHATDTNLVECLTKINRMDIVHLME [D8P], the abundance fitness was found to be 0.011 ± 0.12.

With ERLAYIAVHLGFSWTELARELDFTEEQIHQIRIENPNSLQDQSHALLKYWLERDGKHATDTNLVECLTKINRMDIVHLME [D8V], the abundance fitness was -0.232 ± 0.11.

With ERLAYIARHLGFSWTELARELDFTEEQIHQIRIENPNSLQDQSHALLKYWLERDGKHATDTNLVECLTKINRMDIVHLME [D8R], the abundance fitness was 0.031 ± 0.11.

Regarding ERLAYIADHLDFSWTELARELDFTEEQIHQIRIENPNSLQDQSHALLKYWLERDGKHATDTNLVECLTKINRMDIVHLME [G11D], the abundance fitness is -0.052 ± 0.12.

As for ERLAYIADHLFFSWTELARELDFTEEQIHQIRIENPNSLQDQSHALLKYWLERDGKHATDTNLVECLTKINRMDIVHLME [G11F], the abundance fitness is -0.039 ± 0.12.

As for ERLAYIADHLGFSWTELARELDFTEEQIHQIRIENPNSLQDQSHALLKYWLEHDGKHATDTNLVECLTKINRMDIVHLME [R53H], the abundance fitness is -0.092 ± 0.15.

Turning to ERLAYIADHLGFSWTELARELDFTEEQIHQIRIENPNSLQDQSHALLKYWLEYDGKHATDTNLVECLTKINRMDIVHLME [R53Y], the abundance fitness is -0.166 ± 0.19.

ERLAYIADHLGFSWTELARELDFTEEQIHQIRIENPNSLQDQSHALLKYWLESDGKHATDTNLVECLTKINRMDIVHLME [R53S]: the abundance fitness was 0.005 ± 0.056.

For ERLAYIADHLGFSWTELARELDFTEEQIHQIRIENPNSLQDQSHALLKYWLENDGKHATDTNLVECLTKINRMDIVHLME [R53N], the abundance fitness is -0.144 ± 0.17.

Consider ERLAYIADHLGFSWTELARELDFTEEQIHQIRIENPNSLQDQSHALLKYWLERDGKHATDTNLVECLTKINRMDITHLME [V76T], for which the abundance fitness was -0.223 ± 0.14.

With ERLAYIADHLGFSWTELARELDFTEEQIHQIRIENPNSLQDQSHALLKYWLERDGKHATDTNLVECLTKINRMDIWHLME [V76W], the abundance fitness is -0.05 ± 0.11.

ERLAYIADHLGFSWTELARELDFTEEQIHQIRIENPNSLQDQSHALLKYWLERDGKHATDTNLVECLTKINRMDIKHLME [V76K]: the abundance fitness was -0.467 ± 0.2.

For the variant ERLAYIADHLGFSWTELARELDFTEEQIHQIRIENPNSLQDQSHALLKYWLERDGKHATDTNLVECLTKINRMDIMHLME [V76M], the abundance fitness was -0.099 ± 0.12.

Consider ERLAYIADHLGFSWTELARELDFTMEQIHQIRIENPNSLQDQSHALLKYWLERDGKHATDTNLVECLTKINRMDIVHLME [E25M], for which the abundance fitness was -0.113 ± 0.074.
